From PMC5018216 (Nature structural & molecular biology, 2016)
Values joined by “and” are separate entries in the source; they are usually repeats but may differ in a detail not shown here. Equal entries are not always repeated.

Key:
PagP = biological target: T1, PagP (UniProt P37001 26-186); assay: native MS
T1 sequence (looked up): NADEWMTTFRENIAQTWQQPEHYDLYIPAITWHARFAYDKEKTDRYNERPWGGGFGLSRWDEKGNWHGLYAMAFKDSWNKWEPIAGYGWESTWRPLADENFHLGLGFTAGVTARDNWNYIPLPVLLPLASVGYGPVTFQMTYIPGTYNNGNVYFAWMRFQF

[1] = biological target: tBamA, the 16-stranded transmembrane domain of the BamA OMP insertase (UniProt P0A940 425-810); assay: native MS
OmpF = biological target: T2, OmpF (UniProt P02931 23-362); assay: native MS
T2 sequence (looked up): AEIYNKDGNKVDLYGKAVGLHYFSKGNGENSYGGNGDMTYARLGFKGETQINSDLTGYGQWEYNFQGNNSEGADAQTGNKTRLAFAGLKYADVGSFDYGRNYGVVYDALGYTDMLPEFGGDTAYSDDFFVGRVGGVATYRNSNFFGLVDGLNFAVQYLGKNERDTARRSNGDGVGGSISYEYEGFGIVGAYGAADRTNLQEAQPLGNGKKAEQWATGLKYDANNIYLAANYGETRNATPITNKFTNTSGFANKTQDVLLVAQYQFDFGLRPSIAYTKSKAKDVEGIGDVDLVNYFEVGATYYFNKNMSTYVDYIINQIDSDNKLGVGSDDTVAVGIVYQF

[2] = biological target: T3, tOmpA, the 8-stranded transmembrane domain of OmpA (UniProt P0A910 22-197); assay: native MS
T3 sequence: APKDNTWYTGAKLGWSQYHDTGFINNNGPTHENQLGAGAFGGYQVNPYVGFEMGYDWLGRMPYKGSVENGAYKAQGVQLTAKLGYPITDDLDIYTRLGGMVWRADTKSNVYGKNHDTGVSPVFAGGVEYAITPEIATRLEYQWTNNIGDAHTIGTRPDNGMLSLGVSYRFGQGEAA

native MS = biological target: the molecule itself; assay: native MS
OmpT = biological target: T4, OmpT (E. coli, UniProt P09169 21-317); assay: native MS
T4 sequence (looked up): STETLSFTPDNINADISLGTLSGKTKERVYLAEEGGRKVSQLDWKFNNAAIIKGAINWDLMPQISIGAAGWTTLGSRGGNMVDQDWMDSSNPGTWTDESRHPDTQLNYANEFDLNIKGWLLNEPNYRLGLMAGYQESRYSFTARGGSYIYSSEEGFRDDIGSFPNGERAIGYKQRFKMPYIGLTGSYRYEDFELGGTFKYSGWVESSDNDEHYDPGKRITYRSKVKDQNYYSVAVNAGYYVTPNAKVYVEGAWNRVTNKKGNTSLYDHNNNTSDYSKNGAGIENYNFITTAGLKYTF

full-length OmpA = biological target: T5, full-length OmpA (UniProt P0A910 22-346); assay: cross-linking
T5 sequence (looked up): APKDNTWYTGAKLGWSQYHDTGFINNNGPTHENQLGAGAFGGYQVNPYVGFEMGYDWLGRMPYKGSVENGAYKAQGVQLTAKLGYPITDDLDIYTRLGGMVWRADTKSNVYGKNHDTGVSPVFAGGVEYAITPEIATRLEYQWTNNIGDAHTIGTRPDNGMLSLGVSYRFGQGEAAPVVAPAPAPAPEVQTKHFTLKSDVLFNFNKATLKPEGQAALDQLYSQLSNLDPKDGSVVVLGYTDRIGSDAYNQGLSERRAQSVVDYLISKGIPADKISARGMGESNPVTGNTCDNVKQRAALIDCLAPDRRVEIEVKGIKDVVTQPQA

full-length BamA = full-length BamA (UniProt P0A940 21-810); assay: cross-linking

B1: Skp (natural protein, Escherichia coli, UniProt P0AEU7 21-161, looked up)
chain: ADKIAIVNMGSLFQQVAQKTGVSNTLENEFKGRASELQRMETDLQAKMKKLQSMKAGSDRTKLEKDVMAQRQTFAQKAQAFEQDRARRSNEERGKLVTRIQTAVKSVANSQDIDLVVDANAVAYNSSDVKDITADVLKQVK
How did the “stoichiometry N” value (PagP) turn out when B1 was run?
The value was 1 Skp (trimer) per OMP.

And the “stoichiometry N” value [1]?
The value was 1 Skp (trimer) per OMP and ≤ 2 Skp (trimer) per OMP.

What about the “stoichiometry N” value (OmpF) of the same binder?
Its value is 1 Skp (trimer) per OMP and ≤ 2 Skp (trimer) per OMP.

And the “stoichiometry N” value [2]?
Its value is 1 Skp (trimer) per OMP.

Does B1 bind (native MS)?
Result: binds

What about the “stoichiometry N” value (OmpT) of the same binder?
Its value is ≤ 2 Skp (trimer) per OMP and 1 Skp (trimer) per OMP.

B2: His-tagged Skp (natural protein, Escherichia coli)
chain: B1 chain
How did the “stoichiometry N” value (full-length OmpA) turn out when B2 was run?
The value was 1 Skp (trimer) per OMP.

What about the “stoichiometry N” value (full-length BamA) of the same binder?
The value was 2 Skp (trimer) per OMP.
